Test results reported in US20220177587A1, “METHODS AND USES OF VARIANT CD80 FUSION PROTEINS AND RELATED CONSTRUCTS” (Alpine Immune Sciences, Inc., priority 2018, published 2022).

Legend:
[1] = molecular target: T1, CD28 (Homo sapiens, UniProt P10747); test: Flow binding to Jurkat/IL2 reporter cells (CD28); parameters: host or cells: Jurkat cells expressing an IL-2-luciferase reporter
Experimental: Binding of selected immunomodulatory fusion proteins to cognate binding partners was assessed. […] Cells were sorted in a Bio-Rad S3 Cell Sorter (Bio-Rad Corp., USA) to >98% purity. Jurkat/IL2 reporter cells, which endogenously express CD28, were used to detect binding to CD28.
For staining and analysis by flow cytometry, 100,000 cells of appropriate transfected cells were plated in 96-well round bottom plates. Cells were spun down and resuspended in staining buffer (phosphate buffered saline (PBS), 1% bovine serum albumin (BSA), and 0.1% sodium azide) for 20 minutes to block non-specific binding. […] Primary staining was performed on ice for 45 minutes, before washing cells in staining buffer twice. Phycoerythrin (PE)-conjugated anti-human Fc (Jackson ImmunoResearch, USA) was diluted 1:150, added to cells and incubated another 30 minutes on ice. Cells were then washed twice with 150 μL/well stain buffer, fixed in 2% formaldehyde/PBS, and analyzed on Intellicyt flow cytometer (Intellicyt Corp., USA). PE Mean Fluorescence Intensity (MFI) was calculated for each cell type with FlowJo Version 10 software (FlowJo LLC, USA).
Binding assays were carried out to assess the specificity and affinity of multivalent proteins to cell-expressed CTLA-4, CD28, and PD-L1 counter structures.
The EC50 for binding also was determined.

[2] = molecular target: huCTLA4 (Homo sapiens, UniProt P16410); test: Flow binding to CHO cells stably expressing CTLA4; parameters: huCTLA4 and huPD-L1, full-length mammalian surface expression constructs were generated; expressed in transfected cells; host or cells: CHO cells, lentiviral transduction, sorted to >98% purity; conditions: for CTLA4 MFI at 33.3 nM: CHO cells stably expressing CTLA4
huCTLA4, sequence (P16410 36-223): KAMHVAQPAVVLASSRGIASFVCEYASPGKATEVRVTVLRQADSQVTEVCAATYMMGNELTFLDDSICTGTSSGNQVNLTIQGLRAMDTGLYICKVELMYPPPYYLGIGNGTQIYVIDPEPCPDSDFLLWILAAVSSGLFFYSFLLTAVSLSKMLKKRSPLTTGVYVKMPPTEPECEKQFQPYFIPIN
Outline: (§1)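 Fusion proteins bound to CHO cells stably expressing CTLA4 or PD-L1, or to Jurkat/IL2 reporter cells with endogenous CD28, for 45 min on ice after blocking in PBS/1% BSA. Detection with PE anti-human Fc by flow cytometry; PE MFI per cell type and binding EC50 determined.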

[3] = molecular target: huPD-L1 (Homo sapiens, UniProt Q9NZQ7); test: Flow binding to CHO cells stably expressing PD-L1; parameters: huCTLA4 and huPD-L1, full-length mammalian surface expression constructs were generated; expressed in transfected cells; host or cells: CHO cells, lentiviral transduction, sorted to >98% purity; conditions: for PD-L1 MFI at 33.3 nM: CHO cells stably expressing PD-L1
huPD-L1, sequence (Q9NZQ7 19-290): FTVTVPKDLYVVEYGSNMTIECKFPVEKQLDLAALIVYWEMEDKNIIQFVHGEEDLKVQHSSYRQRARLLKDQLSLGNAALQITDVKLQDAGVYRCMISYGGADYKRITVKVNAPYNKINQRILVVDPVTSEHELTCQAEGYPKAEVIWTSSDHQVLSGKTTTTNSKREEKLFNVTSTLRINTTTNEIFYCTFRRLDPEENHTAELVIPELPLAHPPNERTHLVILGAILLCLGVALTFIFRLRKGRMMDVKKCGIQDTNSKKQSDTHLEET
Outline: as §1

[4] = molecular target: T1, CD28; test: Jurkat/IL2 + CHO/OKT3 +/- PD-L1 reporter assay: PD-L1-dependent CD28 costimulation; type: cell-based; parameters: host or cells: Jurkat cells expressing an IL-2-luciferase reporter; conditions: Table E13; Jurkat/IL2 + CHO/OKT3/PD-L1; 5.0 nM
Outline: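 Jurkat reporter cells (100,000/well) preincubated 15 min at room temperature with test protein, then cocultured 5 h at 37 °C with CHO aAPCs bearing anti-CD3 scFv (OKT3) with or without PD-L1. Luciferase luminescence (RLU) read after lysis-substrate addition.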

[5] = Table E11, Jurkats (CD28), 33.3 nM
[6] = Table E23, CD80 IgV-Fc (inert) at 33.3 nM, Jurkat (CD28)
[7] = Table E23, CD80 IgV-Fc (inert) at 33.3 nM
[8] = Table E23, MFI at 33.3 nM relative to CD80 WT IgV-Fc

B1: A26E/M47L/V68M/D90G (protein)
chain: VIHVTKEVKEVATLSCGHNVSVEELEQTRIYWQKEKKMVLTMMSGDLNIWPEYKNRTIFDITNNLSIMILALRPSDEGTYECVVLKYEKGAFKREHLAEVTLSVKAD
[1]; Table E20, Jurkats (CD28), 33.3 nM
  CD28 MFI at 33.3 nM: 2583
[2]; Table E20, 33.3 nM
  CTLA4 MFI at 33.3 nM: 21900
[3]; Table E20, 33.3 nM
  PD-L1 MFI at 33.3 nM: 10626

B2: N48K/V68M (protein)
chain: VIHVTKEVKEVATLSCGHNVSVEELAQTRIYWQKEKKMVLTMMSGDMKIWPEYKNRTIFDITNNLSIMILALRPSDEGTYECVVLKYEKDAFKREHLAEVTLSVKAD
[1]; Table E19, Jurkats (CD28), 33.3 nM
  CD28 MFI at 33.3 nM: 118
[2]; Table E19, 33.3 nM
  CTLA4 MFI at 33.3 nM: 2341
[3]; Table E19, 33.3 nM
  PD-L1 MFI at 33.3 nM: 754

B3: E35D/M47V/V68M/L85M (protein, UniProt P33681 35-288, looked up, variant E35D M47V V68M L85M)
T-lymphocyte activation …: VIHVTKEVKEVATLSCGHNVSVEELAQTRIYWQKDKKMVLTMMSGDVNIWPEYKNRTIFDITNNLSIMILALRPSDEGTYECVVMKYEKDAFKREHLAEVTLSVKADFPTPSISDFEIPTSNIRRIICSTSGGFPEPHLSWLENGEELNAINTTVSQDPETELYAVSSKLDFNMTTNHSFMCLIKYGHLRVNQTFNWNTTKQEHFPDNLLPSWAITLISVNGIFVICCLTYCFAPRCRERRRNERLRRESVRPV
[1]; [5]
  CD28 MFI at 33.3 nM: 201
[4]
  Relative Luciferase Units (RLU), CD80 Cone 5.0 nM: 1167 RLU
[2]; Table E11, 33.3 nM
  CTLA4 MFI at 33.3 nM: 15997

B4: H18V/A26G/E35D/M47V/V68M/A71G/D90G (protein, UniProt P33681 35-288, looked up, variant H18V A26G E35D M47V V68M A71G D90G)
T-lymphocyte activation …: VIHVTKEVKEVATLSCGVNVSVEELGQTRIYWQKDKKMVLTMMSGDVNIWPEYKNRTIFDITNNLSIMILGLRPSDEGTYECVVLKYEKGAFKREHLAEVTLSVKADFPTPSISDFEIPTSNIRRIICSTSGGFPEPHLSWLENGEELNAINTTVSQDPETELYAVSSKLDFNMTTNHSFMCLIKYGHLRVNQTFNWNTTKQEHFPDNLLPSWAITLISVNGIFVICCLTYCFAPRCRERRRNERLRRESVRPV
[1]; [6]
  CD28 MFI at 33.3 nM: 8189
[2]; [7]
  CTLA4 MFI at 33.3 nM: 25398
[3]; [7]
  PD-L1 MFI at 33.3 nM: 66198

B5: H18L/E35D/M47V/V68M/A71G/D90G (protein, UniProt P33681 35-288, looked up, variant H18L E35D M47V V68M A71G D90G)
T-lymphocyte activation …: VIHVTKEVKEVATLSCGLNVSVEELAQTRIYWQKDKKMVLTMMSGDVNIWPEYKNRTIFDITNNLSIMILGLRPSDEGTYECVVLKYEKGAFKREHLAEVTLSVKADFPTPSISDFEIPTSNIRRIICSTSGGFPEPHLSWLENGEELNAINTTVSQDPETELYAVSSKLDFNMTTNHSFMCLIKYGHLRVNQTFNWNTTKQEHFPDNLLPSWAITLISVNGIFVICCLTYCFAPRCRERRRNERLRRESVRPV
[1]; [6]
  CD28 MFI at 33.3 nM: 6349
[2]; [7]
  CTLA4 MFI at 33.3 nM: 20280
[3]; [7]
  PD-L1 MFI at 33.3 nM: 64761

B6: H18Y/E35D/M47L/V68M/E95V/L97Q (protein, UniProt P33681 35-288, looked up, variant H18Y E35D M47L V68M E95V L97Q)
T-lymphocyte activation …: VIHVTKEVKEVATLSCGYNVSVEELAQTRIYWQKDKKMVLTMMSGDLNIWPEYKNRTIFDITNNLSIMILALRPSDEGTYECVVLKYEKDAFKRVHQAEVTLSVKADFPTPSISDFEIPTSNIRRIICSTSGGFPEPHLSWLENGEELNAINTTVSQDPETELYAVSSKLDFNMTTNHSFMCLIKYGHLRVNQTFNWNTTKQEHFPDNLLPSWAITLISVNGIFVICCLTYCFAPRCRERRRNERLRRESVRPV
[1]; [5]
  CD28 MFI at 33.3 nM: 14.5
[1]; Table E16, consensus variants, Jurkats (CD28), 33.3 nM
  CD28 MFI at 33.3 nM: 2602
[4]
  Relative Luciferase Units (RLU), CD80 Cone 5.0 nM: 225 RLU
[2]; Table E11, 33.3 nM
  CTLA4 MFI at 33.3 nM: 20475
[2]; Table E16, consensus variants, 33.3 nM
  CTLA4 MFI at 33.3 nM: 18022

B7: H18I/A26P/E35D/M47V/V68M/A71G (protein, UniProt P33681 35-288, looked up, variant H18I A26P E35D M47V V68M A71G)
T-lymphocyte activation …: VIHVTKEVKEVATLSCGINVSVEELPQTRIYWQKDKKMVLTMMSGDVNIWPEYKNRTIFDITNNLSIMILGLRPSDEGTYECVVLKYEKDAFKREHLAEVTLSVKADFPTPSISDFEIPTSNIRRIICSTSGGFPEPHLSWLENGEELNAINTTVSQDPETELYAVSSKLDFNMTTNHSFMCLIKYGHLRVNQTFNWNTTKQEHFPDNLLPSWAITLISVNGIFVICCLTYCFAPRCRERRRNERLRRESVRPV
[1]; [6]
  CD28 MFI at 33.3 nM: 2573
[1]; [8]
  CD28 Fold change to WT CD80: 25.2
[2]; [7]
  CTLA4 MFI at 33.3 nM: 21923
[2]; [8]
  CTLA4 Fold change to WT CD80: 15.8
[3]; [7]
  PD-L1 MFI at 33.3 nM: 64919
[3]; [8]
  PD-L1 Fold change to WT CD80: 393.4
[3]; Table E23, ratio of MFI at 33.3 nM
  Ratio of PDL1:CD28: 25.2
